Experimental data from article PMC7108717, “Dynamics in the murine norovirus capsid revealed by high-resolution cryo-EM” (PLoS Biology, 2020).

Target: the molecule itself
Assay: cryo-EM structure; purified virions in EM buffer (10 mM HEPES pH 7.6, 200 mM NaCl, 5 mM MgCl2, 1 mM KCl, 1 mM CaCl2), icosahedral reconstruction and focussed classification of P domain dimers

B1: murine norovirus (MNV-1 strain CW1P3) major structural protein VP1, wild type (natural protein)
chain: MRMSDGAAPKANGSEASGQDLVPAAVEQAVPIQPVAGAALAAPAAGQINQIDPWIFQNFVQCPLGEFSISPRNTPGEILFDLALGPGLNPYLAHLSAMYTGWVGNMEVQLVLAGNAFTAGKVVVALVPPYFPKGSLTTAQITCFPHVMCDVRTLEPIQLPLLDVRRVLWHATQDQEESMRLVCMLYTPLRTNSPGDESFVVSGRLLSKPAADFNFVYLTPPIERTIYRMVDLPVIQPRLCTHARWPAPVYGLLVDPSLPSNPQWQNGRVHVDGTLLGTTPISGSWVSCFAAEAAYKFQSGTGEVATFTLIEQDGSAYVPGDRAAPLGYPDFSGQLEIEVQTETTKTGDKLKVTTFEMILGPTTNADQAPYQGRVFASVTAAASLDLVDGRVRAVPRSIYGFQDTIPEYNDGLLVPLAPPIGPFLPGEVLLRFRTYMRQIDTADAAAEAIDCALPQEFVSWFASNAFTVQSEALLLRYRNTLTGQLLFECKLYNEGYIALSYSGSGPLTFPTDGIFEVVSWVPRLYQLASVGSLATGRMLKQ
notes: major capsid protein VP1 (ORF2) of murine norovirus MNV-1 strain CW1P3, as it stands in infectious virions; N-terminal region, S domain, P domain (P1, P2); modelled from D20 (A-type), S17 (B-type), V30 (C-type); Capsid: 90 dimers (AB and CC) in T = 3 symmetry; also called wtMNV VP1; MNV VP1; copies: 180
  stoichiometry N: 180 VP1 chains in the capsid
